Reference: patent US20040167074A1, “Therapeutic applications of mFLINT polypeptides” (priority 1998, published 2004)
Several values for one entry are separate records, joined by “and”; a condition that tells them apart may be missing. Equal values may be shown once.

How the values were obtained:
FasL = molecular target: T1, FasL (Homo sapiens, UniProt P48023); assay: Dot blot binding of mFLINT to TNF ligands; conditions: chemiluminescence detection
T1 construct: made in house
T1 sequence (P48023 1-281): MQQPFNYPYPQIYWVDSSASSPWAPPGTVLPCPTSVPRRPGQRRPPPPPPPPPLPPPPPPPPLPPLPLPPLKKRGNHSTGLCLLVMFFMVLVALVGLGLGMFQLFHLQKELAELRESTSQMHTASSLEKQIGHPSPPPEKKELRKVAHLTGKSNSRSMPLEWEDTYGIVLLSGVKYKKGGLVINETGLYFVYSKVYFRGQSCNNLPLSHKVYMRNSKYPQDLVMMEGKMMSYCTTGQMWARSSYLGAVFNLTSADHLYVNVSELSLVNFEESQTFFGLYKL
Method: (§1) Dot blot experiment was performed to scan known TNF ligands that are commercially available TRAIL and FasL for interaction with mFLINT.
(§2) TRAIL (RnD Systems) and FasL (Kamiya Biomedical Company) were spotted on a nitrocellulose paper and incubated with purified mFLINT-Flag. mFLINT was washed away and binding mFLINT was detected using anti Flag antibody. Both OPG2Fc and mFLINT-Flag were overexpressed and purified according the examples above. […] The nitrocellulose paper was subsequently mixed with the cell lysate containing FasL-Myc, and further incubated on a rotator for 1 hour at room temperature. Secondary and tertiary incubations were performed with anti-myc antibody and anti-mouse IgG-HRP for 1 hour and 30 minutes respectively.

TRAIL = molecular target: T2, TRAIL (Homo sapiens, UniProt P50591); assay: Dot blot binding of mFLINT to TNF ligands
T2 construct: purchased RnD Systems
T2 sequence (P50591 114-281 limits assumed, species assumed): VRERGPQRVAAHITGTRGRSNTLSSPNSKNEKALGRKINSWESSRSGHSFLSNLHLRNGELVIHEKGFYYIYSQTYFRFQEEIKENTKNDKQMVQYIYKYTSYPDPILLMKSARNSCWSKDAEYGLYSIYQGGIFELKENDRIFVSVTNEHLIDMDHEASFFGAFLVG
Method: as §1, §2

TNFβ = molecular target: T3, TNFβ (Homo sapiens, UniProt P01374); assay: Dot blot binding of mFLINT to TNF ligands
T3 construct: purchased
T3 sequence (P01374 35-205): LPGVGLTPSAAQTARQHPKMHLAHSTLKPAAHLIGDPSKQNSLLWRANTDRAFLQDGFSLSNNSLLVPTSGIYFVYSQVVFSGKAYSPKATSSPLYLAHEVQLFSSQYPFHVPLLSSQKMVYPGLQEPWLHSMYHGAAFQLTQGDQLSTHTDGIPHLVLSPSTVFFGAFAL

hFasLigand (Flag-tagged) = molecular target: T4, hFasLigand (Flag-tagged) (Homo sapiens, UniProt P48023); assay: ELISA: FasLigand binding to adsorbed FLINT and Fas; conditions: 100 ng receptor adsorbed
T4 sequence (P48023 103-281 limits assumed): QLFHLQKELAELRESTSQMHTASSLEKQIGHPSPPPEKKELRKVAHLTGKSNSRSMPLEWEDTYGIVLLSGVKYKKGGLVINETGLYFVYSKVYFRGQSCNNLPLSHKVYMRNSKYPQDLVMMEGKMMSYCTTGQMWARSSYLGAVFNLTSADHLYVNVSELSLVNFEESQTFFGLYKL
Method: FLINT and Fas (100 ng of each) were adsorbed on to an ELISA plate. hFasLigand (Flag-tagged) was added at different concentrations to a maximum concentration of 300 ng down to 0.1 ng on TBST plus a 0.1% solution containing 1 microgram/ml of M2 Abs. After washing of the plate, anti-mouse-Abs-HRP (1:3000 dilution, Bio-Rad) was added to the wells. After washings, visualization enzymatic reaction using ABTS as a substrate was performed.

Jurkat cells [1] = assay: anti-CD3 induced Jurkat apoptosis (Annexin V/PI, FACS); type: cell-based; design: Cell apoptosis (Annexin V, FACS): unit not given here; conditions: for Cell apoptosis (positive staining with Annexin V): Example 12; for Cell apoptosis (Annexin V, FACS): Example 14
Method: Non-tissue treated 24 well plates (Decton Dickinson, Mansfield, Mass.) were coated with 0.5 ml of 1 ug/ml anti-CD3 (Farmingen) in PBS for 90 min at 37° C. The plate was washed once with PBS.
Cells were incubated overnight at 37° C. incubator and cells were then stained by Annexin V and PI staining. Apotosis was analyzed by flow cytometer (FACS). Cell apoptosis was indicated by positive staining with Annexin V.

Jurkat cells [2] = assay: Recombinant FasL induced Jurkat cell apoptosis (Annexin V/PI, FACS); type: cell-based; conditions: Jurkat + FasL 200 ng/ml + 1 ug test agent
Method: One milliliter of 1×10^6 cell/ml was added into each well of 24 well tissue culture plate and treated with following reagents: soluble Fas L (200 ng), Fas L plus 1 ug mFLINT, Fas L plus 1 ug OPG2-Fc, Trail (200 ng), Trail plus 1 ug mFLINT. Cells were incubated overnight at 37° C. and then stained with Annexin V and PI.

B16 melanoma cells = assay: B16 melanoma subcutaneous tumor growth; type: in vivo; conditions: days 4-13
Method: Tumor response was monitored by tumor volume measurements as determined by caliper measurements of two dimensions of the tumors on days 4, 8, 11, 17, 21, 25, 30 and 34. Tumor volume was calculated as a hemi-ellipsoid. The animals were weighed on the same schedule described above.

bone marrow cells = assay: Viable cell count of bone marrow cells from 5-FU treated mice after cytokine expansion; type: cell-based, mouse; conditions: FIG. 10; 3 days with SCF and IL-6; mFLINT 1 ug/ml, anti-FasL 1 ug/ml, FasL 0.15 ug/ml; control 3,300
Text: Following a 3 day in vitro expansion period with cytokines, viable cells are counted and used to set up a CFU assay. If mFLINT or anti-FasL antibody protects progenitor cells from apoptosis, one would expect a greater number of colonies in these groups for the CFU assay. […] The values were: control cells: 3,300; FasL-treated cells: 3,000; anti-FasL-treated cells: 4,200; mFLINT-treated cells: 4,900.

[3] = system: Ventricular cardiomyocytes; assay: Hypoxia/reperfusion-induced cardiomyocyte apoptosis (nucleosome DNA ELISA)
Method: In particular, cardiomyocytes were incubated under hypoxia conditions for 8 hours, followed by 16 hours of culture under normal O2, which mimics the hypoxic conditions found in ischemic cardiac tissue.
Ventricular cardiomyocytes were isolated from the hearts of 1-3 day-old neonatal rats by trypsin digestion and non-myocytes were eliminated by pre-plating. Primary cultures were plated in special-coated 96-well plates in serum-free medium.
Hypoxia was induced by incubating cultures in glucose-free and oxygen-free (5% Co2 and 95% N2) for 8 hours. Reperfusion was mimicked by a 16 hour incubation in glucose-containing medium under normal oxygen conditions. At the end of this incubation, cardiomyocyte apoptosis was measured by the cytoplasmic nucleosome-associated DNA ELISA method. Test samples were incubated with mFLINT (2 μg/ml or 5 μg/ml) and control samples with Z-YVAD-fmk (50 μM), a commercial caspase inhibitor.

B1: mFLINT: mature FLINT without leader peptide (FIG. 3), soluble TNFR superfamily member, made according to Examples 8 and 9 (protein)
chain: VAETPTYPWRDAETGERLVCAQCPPGTFVQRPCRRDSPTTCGPCPPRHYTQFWNYLERCRYCNVLCGEREEEARACHATHNRACRCRTGFFAHAGFCLEHASCPPGAGVIAPGTPSQNTQCQPCPPGTFSASSSSSEQCQPHRNCTALGLALNVPGSSSHDTLCTSCTGFPLSTRVPGAEECERAVIDFVAFQDISIKRLQRLLQALEAPEGWGPTPRAGRAALQLKLRRRLTELLGAQDGALLVRLLQALRVARMPGLERSVRERFLPVH
modifications: glycosylated
- binding in dot blot (FasL): bound to FasL specifically
- binding in dot blot (TRAIL): No appreciable binding
- binding in dot blot (TNFβ): No appreciable binding
- OD, 405 nM (hFasLigand (Flag-tagged); FasL 0.1 ng): 0
- OD, 405 nM (hFasLigand (Flag-tagged); FasL 0.5 ng): 0
- OD, 405 nM (hFasLigand (Flag-tagged); FasL 1.0 ng): .02
- OD, 405 nM (hFasLigand (Flag-tagged); FasL 5.0 ng): .04
- OD, 405 nM (hFasLigand (Flag-tagged); FasL 10 ng): .12
- OD, 405 nM (hFasLigand (Flag-tagged); FasL 50 ng): .28
- OD, 405 nM (hFasLigand (Flag-tagged); FasL 100 ng): .78
- Cell apoptosis (positive staining with Annexin V) (Jurkat cells [1]; Jurkat + antiCD3 + 1 ug test agent): 27.77
- Cell apoptosis (positive staining with Annexin V) (Jurkat cells [1]; Jurkat + antiCD3 + 2 ug test agent): 18.67
- Cell apoptosis (Annexin V, FACS) (Jurkat cells [1]; anti CD3 + 15.625 ng): 28.80
- Cell apoptosis (Annexin V, FACS) (Jurkat cells [1]; anti CD3 + 31.25 ng): 28.21
- Cell apoptosis (Annexin V, FACS) (Jurkat cells [1]; anti CD3 + 62.5 ng): 28.99
- Cell apoptosis (Annexin V, FACS) (Jurkat cells [1]; anti CD3 + 125 ng): 29.4
- Cell apoptosis (Annexin V, FACS) (Jurkat cells [1]; anti CD3 + 250 ng): 28.93
- Cell apoptosis (Annexin V, FACS) (Jurkat cells [1]; anti CD3 + 500 ng): 27.48
- Cell apoptosis (Annexin V, FACS) (Jurkat cells [1]; anti CD3 + 1000 ng): 24.29
- Cell apoptosis (Annexin V, FACS) (Jurkat cells [1]; anti CD3 + 2000 ng): 17.02
- Cell apoptosis (Annexin V, FACS) (Jurkat cells [1]; anti CD3 + 3000 ng): 14.68
- Cell apoptosis (Annexin V and PI, FACS) (Jurkat cells [2]): 3.32 and 4.6
- day tumors reached a volume of 500 mm^3 (B16 melanoma cells; 50 μg/injection iv once daily): 19.3 ± 0.3 days
- day tumors reached a volume of 1000 mm^3 (B16 melanoma cells; 50 μg/injection iv once daily): 23.0 ± 0.4 days
- tumor growth delay (B16 melanoma cells; 50 μg/injection iv once daily): 1.8 days
- tumor volume after 20 days (B16 melanoma cells; FIG. 8, 50 μg/injection iv, control approximately 1000 mm^3): approximately 730 mm^3
- bone marrow cell count (bone marrow cells): 4,900 ×1000
- inhibition of hypoxia-induced apoptosis ([3]; 10 μg/ml mFLINT, 8 hours hypoxia, 16 hours normal O2): 90%
- inhibition of hypoxia/reperfusion-induced apoptosis ([3]; mFLINT 2 μg/ml or 5 μg/ml, duplicate experiments): essentially complete inhibition
